The term EC50 denotes the midpoint of the concentration-response curve. Low readings indicate an effect from little substance, high ones a need for much substance. In general, Kd refers to the free concentration of one partner at which half of the binding sites on the other are occupied at equilibrium, for simple one-to-one binding.

Read-outs that look alike come from different tables or passages of the source.

This is an account of results in US20260217824A1 (Bristol-Myers Squibb, published 2026).

The target in assay [1] is T1, FcγRIIB (CD32b) (human, UniProt P31994 43-217).
T1 sequence (looked up): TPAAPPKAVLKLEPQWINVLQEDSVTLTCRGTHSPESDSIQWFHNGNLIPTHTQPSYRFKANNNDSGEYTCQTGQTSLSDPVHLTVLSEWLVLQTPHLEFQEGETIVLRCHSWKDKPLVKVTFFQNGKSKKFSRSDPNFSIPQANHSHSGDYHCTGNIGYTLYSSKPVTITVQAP
In words: SPR sensorgrams, Example 10; response axis without unit, no time axis; set-up and concentrations not given.

Assay [2] addresses T2, FcγRIIIA (CD16a-V158 variant) (human, UniProt P08637 17-208). The assay is described as above.
Assay [3] has as its target T3, FcγRIIIB (CD16b-NA2 variant) (human, UniProt O75015 17-200). Described as above.
Assay [4] deals with T4, FcγRIIA (CD32a-R131 variant) (human, UniProt P12318 36-218).
T4 sequence (looked up): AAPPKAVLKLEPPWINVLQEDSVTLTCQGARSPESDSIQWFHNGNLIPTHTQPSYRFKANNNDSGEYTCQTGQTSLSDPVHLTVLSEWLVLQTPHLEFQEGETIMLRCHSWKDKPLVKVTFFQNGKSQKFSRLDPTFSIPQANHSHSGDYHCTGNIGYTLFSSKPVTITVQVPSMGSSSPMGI
In words: SPR, response as % of Rmax (maximum FcγR capacity), Example 10; set-up and concentrations not given. For orientation: In SPR one partner is held on a chip, and binding of the other changes the refractive index at the surface.

Assay [5] concerns the target T5, FcγRIIA (CD32a-H131 variant) (human, UniProt P12318 36-218).
T5 sequence (looked up): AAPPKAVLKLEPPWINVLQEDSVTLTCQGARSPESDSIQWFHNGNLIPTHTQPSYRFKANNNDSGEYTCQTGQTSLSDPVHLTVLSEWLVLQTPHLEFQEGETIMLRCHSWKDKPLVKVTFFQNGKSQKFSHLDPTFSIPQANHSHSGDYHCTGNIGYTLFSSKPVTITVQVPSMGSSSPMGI
Described as above.

Another assay deals with FcγRI (CD64) (human, UniProt P12314 16-288). Described as above.
Assay [6] concerns the target T1, FcγRIIB (CD32b). Nature of the assay: SPR sensorgrams, Example 10; response axis without unit, no time axis; set-up and concentrations not given. The source holds these as a separate data set.
Assay [7] deals with T4, FcγRIIA (CD32a-R131 variant). The description is as above.
In assay [8] the target is T2, FcγRIIIA (CD16a-V158 variant). The description is as above. This is another data set of the same source.
Assay [9] has as its target T5, FcγRIIA (CD32a-H131 variant). The assay is described as above.
Assay [10] deals with T3, FcγRIIIB (CD16b-NA2 variant). In words: SPR, response as % of Rmax (maximum FcγR capacity), Example 10; set-up and concentrations not given.
Assay [11] addresses T6, cynomolgus TREM-1 on cells (cynomolgus).
T6 construct: Endogenous receptor in dosed monkeys; also called TREM-1 receptors on peripheral blood monocytes and granulocytes of cynomolgus monkeys
T6 chain: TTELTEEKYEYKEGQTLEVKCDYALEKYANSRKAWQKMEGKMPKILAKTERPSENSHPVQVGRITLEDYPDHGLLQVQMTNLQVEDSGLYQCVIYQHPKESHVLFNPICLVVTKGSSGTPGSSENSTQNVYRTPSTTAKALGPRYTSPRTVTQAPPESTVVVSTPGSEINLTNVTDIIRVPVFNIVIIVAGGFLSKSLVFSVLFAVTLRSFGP
Nature of the assay: in vivo receptor occupancy against serum concentration, Emax model, cynomolgus monkeys. As for the experimental part: Upon antibody administration, pharmacokinetics, anti-drug antibodies (ADA), TREM-1 receptor occupancy (RO), and ex vivo pharmacodynamics responses were examined at pre-determined time points.
(§1) A direct-effect inhibitory model was used to describe the PD response. […] The observed (open circle) and model-predicted endpoints (solid line) are provided in FIGS. 16A (0.1 mg/kg subcutaneous dosing) and 16B (10 mg/kg subcutaneous dosing).

For assay [12], the target named is T6, cynomolgus TREM-1 on cells. Nature of the assay: estimate of the 2-compartment PK model with TMDD fitted to cynomolgus PK/RO/PD data (mAb affinity for TREM-1); cyno-model estimate (CV 12%) of the TMDD PK/PD fit, not a direct binding assay. As for the experimental part: as §1
Assay [13] has as its target T7, CynoTREM1 (as named in Table 3) (cynomolgus).
T7 construct: also called cynomolgus TREM-1
T7 chain: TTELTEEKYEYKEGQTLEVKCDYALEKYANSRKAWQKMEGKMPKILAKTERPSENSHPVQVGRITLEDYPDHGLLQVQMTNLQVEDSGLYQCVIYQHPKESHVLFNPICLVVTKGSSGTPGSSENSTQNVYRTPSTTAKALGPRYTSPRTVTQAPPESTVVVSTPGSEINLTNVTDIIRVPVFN
In words: SPR (Biacore).

Assay [14] addresses T6, cynomolgus TREM-1 on cells. In words: cell-based or functional assay.

Chain of FcγRI (CD64) (P12314 16-288 limits assumed): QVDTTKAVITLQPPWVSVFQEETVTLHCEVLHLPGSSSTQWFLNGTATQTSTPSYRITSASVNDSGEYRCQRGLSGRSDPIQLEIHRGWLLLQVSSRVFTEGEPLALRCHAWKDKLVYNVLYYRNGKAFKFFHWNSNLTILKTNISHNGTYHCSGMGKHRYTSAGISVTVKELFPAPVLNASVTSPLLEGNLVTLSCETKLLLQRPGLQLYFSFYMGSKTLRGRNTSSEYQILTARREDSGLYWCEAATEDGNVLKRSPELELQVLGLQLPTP
T3 sequence (O75015 other isoform, or with tags, fused parts or gaps mutant limits assumed): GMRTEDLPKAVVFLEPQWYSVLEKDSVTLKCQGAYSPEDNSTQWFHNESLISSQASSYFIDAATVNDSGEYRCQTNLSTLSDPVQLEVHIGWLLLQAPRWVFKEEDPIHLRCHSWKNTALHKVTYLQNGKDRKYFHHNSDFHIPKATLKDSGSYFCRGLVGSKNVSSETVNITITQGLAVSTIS
T2 sequence (P08637 other isoform, or with tags, fused parts or gaps mutant limits assumed): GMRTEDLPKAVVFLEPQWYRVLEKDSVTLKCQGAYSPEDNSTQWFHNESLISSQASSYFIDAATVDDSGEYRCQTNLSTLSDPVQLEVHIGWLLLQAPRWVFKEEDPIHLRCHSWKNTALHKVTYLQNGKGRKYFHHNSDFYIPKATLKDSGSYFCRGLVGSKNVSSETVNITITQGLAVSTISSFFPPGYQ

B1: mAb 0318-IgG1-Aba (antibody)
heavy: not shown
light: DIVLTQSPDSLAVSLGERATINCRASQSVDTFDYSFLHWYQQKPGQPPKLLIYRASNLESGVPDRFSGSGSGTDFTLTISSLQAEDVAVYYCQQSNQDPYTFGQGTKLEIKRTVAAPSVFIFPPSDEQLKSGTASVVCLLNNFYPREAKVQWKVDNALQSGNSQESVTEQDSKDSTYSLSSTLTLSKADYEKHKVYACEVTHQGLSSPVTKSFNRGEC
notes: IgG1 constant region with K214R, C226S, C229S, P238S (EU); also called IgG1-Aba mod; FcAba-1
For the molecule B1, the binding result is given as “no binding” with FcγRIIB (CD32b) [1]; “no binding” in assay [2]; “no binding” in assay [3]; “no binding” in [4]; “no binding” in assay [5]; “binds” with FcγRI (CD64).

B2: mAb 0318-IgG1.1f (antibody)
heavy: EVQLVESGGGLVQPGGSLKLSCAASGFTFSTYAMHWVRQASGKGLEWVGRIRTKSSNYATYYAASVKGRFTISRDDSKNTAYLQMNSLKTEDTAVYYCTRDMGIRRQFAYWGQGTLVTVSSASTKGPSVFPLAPSSKSTSGGTAALGCLVKDYFPEPVTVSWNSGALTSGVHTFPAVLQSSGLYSLSSVVTVPSSSLGTQTYICNVNHKPSNTKVDKRVEPKSCDKTHTCPPCPAPEAEGAPSVFLFPPKPKDTLMISRTPEVTCVVVDVSHEDPEVKFNWYVDGVEVHNAKTKPREEQYNSTYRVVSVLTVLHQDWLNGKEYKCKVSNKALPSSIEKTISKAKGQPREPQVYTLPPSREEMTKNQVSLTCLVKGFYPSDIAVEWESNGQPENNYKTTPPVLDSDGSFFLYSKLTVDKSRWQQGNVFSCSVMHEALHNHYTQKSLSLSPG
light: DIVLTQSPDSLAVSLGERATINCRASQSVDTFDYSFLHWYQQKPGQPPKLLIYRASNLESGVPDRFSGSGSGTDFTLTISSLQAEDVAVYYCQQSNQDPYTFGQGTKLEIKRTVAAPSVFIFPPSDEQLKSGTASVVCLLNNFYPREAKVQWKVDNALQSGNSQESVTEQDSKDSTYSLSSTLTLSKADYEKHKVYACEVTHQGLSSPVTKSFNRGEC
notes: IgG1 constant region with L234A, L235E, G237A, A330S, P331S (EU)
With B2, the binding result (in assay [4]; in the assay with FcγRI (CD64)) was “binds” each time.

B3: mAb 0318-IgG4-Aba (antibody)
heavy: not shown
light: DIVLTQSPDSLAVSLGERATINCRASQSVDTFDYSFLHWYQQKPGQPPKLLIYRASNLESGVPDRFSGSGSGTDFTLTISSLQAEDVAVYYCQQSNQDPYTFGQGTKLEIKRTVAAPSVFIFPPSDEQLKSGTASVVCLLNNFYPREAKVQWKVDNALQSGNSQESVTEQDSKDSTYSLSSTLTLSKADYEKHKVYACEVTHQGLSSPVTKSFNRGEC
notes: IgG4 CH1 with IgG1 CH2 and CH3, C226S, C229S, P238S (EU); also called IgG4-Aba mod; FcAba-4
B3: the binding result with FcγRIIB (CD32b) [6] was “no binding”; in assay [7] it was “no binding”; in assay [8], “no binding”; in assay [9] it was “no binding”; in assay [10] it was “no binding”; with FcγRI (CD64), “binds”.

B4: mAb 0318-IgG1.3f (antibody)
heavy: EVQLVESGGGLVQPGGSLKLSCAASGFTFSTYAMHWVRQASGKGLEWVGRIRTKSSNYATYYAASVKGRFTISRDDSKNTAYLQMNSLKTEDTAVYYCTRDMGIRRQFAYWGQGTLVTVSSASTKGPSVFPLAPSSKSTSGGTAALGCLVKDYFPEPVTVSWNSGALTSGVHTFPAVLQSSGLYSLSSVVTVPSSSLGTQTYICNVNHKPSNTKVDKRVEPKSCDKTHTCPPCPAPEAEGAPSVFLFPPKPKDTLMISRTPEVTCVVVDVSHEDPEVKFNWYVDGVEVHNAKTKPREEQYNSTYRVVSVLTVLHQDWLNGKEYKCKVSNKALPAPIEKTISKAKGQPREPQVYTLPPSREEMTKNQVSLTCLVKGFYPSDIAVEWESNGQPENNYKTTPPVLDSDGSFFLYSKLTVDKSRWQQGNVFSCSVMHEALHNHYTQKSLSLSPGK
light: DIVLTQSPDSLAVSLGERATINCRASQSVDTFDYSFLHWYQQKPGQPPKLLIYRASNLESGVPDRFSGSGSGTDFTLTISSLQAEDVAVYYCQQSNQDPYTFGQGTKLEIKRTVAAPSVFIFPPSDEQLKSGTASVVCLLNNFYPREAKVQWKVDNALQSGNSQESVTEQDSKDSTYSLSSTLTLSKADYEKHKVYACEVTHQGLSSPVTKSFNRGEC
notes: IgG1 constant region with L234A, L235E, G237A (EU)
Regarding B4, a half-maximal response in [11] (EC50) required 1.6 nM. Further, the Kd is 0.64 nM in [12] and 3.4 nM in assay [13]. The “IC50 (nM), estimate of the cynomolgus PK/PD model” value in assay [14] was 1.9 nM. Further, the binding result (in assay [4]; in the assay with FcγRI (CD64)) was “binds” throughout.
